Test results published in the RNAGym collection of RNA variant scans (doi:10.1093/nar/gkz1192).

B1: CPEB3 Ribozyme (parent)
chain: UAACAGGGGGCCACAGCAGAAGCGUUCACGUCGCAGCCCCUGUCAGAUUCUGGUGAAUCUGCGAAUUCUGCUGUAUAUCUC

Variants of: B1
Test: self-cleavage, relative activity (ratio to wild type); higher = more cleavage; in vitro, sequencing
Procedure, shortened: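 Libraries of CPEB3 self-cleaving ribozyme mutants came from rounds of error-prone PCR and carried barcodes, which DNA sequencing matched to variants. In vitro transcription used T7 RNA polymerase at 37°C for 5 hours, with a further 15 min in DNase I before EDTA stopped the reaction; the ribozymes cleaved during both steps. The RNA was reverse transcribed with template switching and sequenced on Illumina. Relative activity is the cleaved/total read fraction of a variant divided by that of the unmutated ribozyme, averaged over three batches with at least 5 reads.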

Variant | self-cleavage
A45G A57C | 0.24
A45G A57U | 0.43
A45G A57G | 0.66
A45G U54A | 0.85
A45G U54C | 0.88
A45G U54G | 0.56
U43G C44U | 0.14
U43C U58C | 0.23
U43C U58A | 0.29
U43C U58G | 0.19
C44A U74C | 0.63
A45G G73C | 0.69
A45G G73A | 1.16
A45G G73U | 1.29
A45C A77G | 0.25
A45C A77U | 0.39
A45G U60A | 0.53
A45G U60C | 1.13
A45G U60G | 0.25
U43C G53U | 0.6
A45C A65G | 0.42
A45C A65U | 0.12
C44U C79U | 0.16
C44U A47G | 0.35

Variant | self-cleavage
U43C G61A | 0.22
A45U A65G | 0.25
A45U A65U | 0.18
U43C U48C | 0.25
U43C U48A | 0.29
C44U U54C | 0.32
C44U U54A | 0.36
U43G U72G | 0.17
U43G U72C | 0.33
U43G U72A | 0.1
U43G G46A | 0.37
U43G C81U | 0.08
A45C G63A | 0.49
A45C G63C | 0.52
C44A U54C | 0.36
C44A U54A | 0.59
U43C U72A | 0.4
U43C U72G | 0.59
U43C U72C | 0.76
A45C U66C | 0.31
C44U A45G | 0.41
C44U A45C | 0.46
U43G A77G | 0.22
U43C U49C | 0.24

Variant | self-cleavage
U43C U49G | 0.26
U43C U49A | 0.26
U43C U66C | 0.33
U43C U66A | 0.24
U43C U66G | 0.45
A45G | 0.85
A45C | 0.38
A45U | 0.51
U43G A65G | 0.34
C44U A77U | 0.22
A45U A56U | 0.23
A45U A56G | 0.27
A45U A56C | 0.28
C44U C62A | 0.14
U43G A75U | 0.35
U43G A75G | 0.24
C44U G61C | 0.2
C44U C81A | 0.11
C44U U74C | 0.6
C44G U80A | 0.52
C44G U80C | 0.78
A45C C68U | 0.28
A45C U69C | 0.27
A45C U69A | 0.14

Variant | self-cleavage
A45C U54C | 0.4
A45C U54A | 0.45
U43G U74G | 0.36
U43G U74A | 0.11
U43C U67A | 0.36
U43C U67C | 0.2
A45G U66A | 0.41
A45G U66C | 0.34
U43G U60A | 0.15
U43G U60C | 0.13
A45G U51C | 0.7
A45G U51A | 0.74
A45G U51G | 0.64
A45C U74C | 0.7
A45C U74G | 0.68
A45G G63A | 0.48
A45G G63U | 0.74
C44G U60C | 0.38
U43C U78C | 0.49
U43C U78G | 0.65
U43C U78A | 0.63
A45C A75U | 0.5
A45C A75G | 0.14
C44G U67C | 0.18

Variant | self-cleavage
C44A U67C | 0.16
C44U U60A | 0.14
C44U U60C | 0.52
A45U C62U | 0.31
A45U C62A | 0.17
A45U C62G | 0.44
C44U U72A | 0.14
C44U U72C | 0.19
C44G A77G | 0.62
U43C G63C | 0.3
U43C G63A | 0.47
A45C C59U | 0.22
U43G U58C | 0.14
A45C C81U | 0.45
A45C A56C | 0.42
A45C A56G | 0.26
A45C A56U | 0.25
A45C A64G | 0.32
A45C A64U | 0
A45U A64U | 0.27
A45U A64G | 0.33
U43C U76G | 0.69
U43C U76C | 0.73
U43C U76A | 0.89

Variant | self-cleavage
A45G U78C | 0.76
A45G U78G | 0.81
A45G U78A | 0.91
A45C U49C | 0.11
A45G C59A | 0.63
A45G C59G | 0.2
A45G C59U | 0.62
U43G G53A | 0.3
A45C G73A | 1.19
C44A U48C | 0.32
A45G C79G | 1.12
A45G C79A | 1.13
C44U A64U | 0.18
C44U A64G | 0.21
U43G C62U | 0.26
U43G C62G | 0.43
A45G G52C | 0.91
A45G G52U | 0.94
A45G G52A | 0.94
U43G | 0.28
C44U G52U | 0.46
A45G G46A | 0.29
A45G G46U | 0.21
A45U C50A | 0.16

Variant | self-cleavage
A45U C50G | 0.06
A45G G61A | 0.82
A45G G61C | 0.23
C44G U48C | 0.1
U43C G73U | 1.2
U43C G73C | 1.19
U43C G73A | 1.13
C44U U78G | 0.12
C44U U78A | 0.3
C44U U78C | 0.35
U43C U74A | 0.85
U43C U74G | 0.86
U43C U74C | 0.89
A45G U74G | 1.21
A45G U74C | 1.1
A45G U74A | 1.13
U43G U78C | 0.28
A45G U49G | 0.1
A45G U49C | 0.27
A45G U49A | 0.42
A45G C62G | 0.25
A45G C62A | 0.45
A45G C62U | 0.22
U43C G70A | 0.31

Variant | self-cleavage
U43C G70U | 0.18
U43C G70C | 0.1
C44G A65U | 0.1
C44G U72C | 0.54
C44G U72G | 0.2
U43C G55U | 0.52
U43C G55C | 0.33
A45G U69C | 0.38
A45G U69A | 0.42
A45G U69G | 0.32
A45G G70A | 0.42
A45G G70U | 0.33
U43C U51A | 0.71
U43C U51G | 0.75
U43C U51C | 0.77
A45G U48C | 0.29
A45G U48A | 0.39
A45G U48G | 0.19
U43G U67C | 0.11
C44U U51C | 0.1
C44U U51A | 0.35
A45C A47G | 0.17
U43G A56G | 0.23
U43G A56U | 0.36

Variant | self-cleavage
C44A A65G | 0.2
C44U A56G | 0.18
U43G A45U | 0.18
U43G A45G | 0.19
A45G A47U | 0.28
A45G A47G | 0.46
A45G U67C | 0.34
A45G U67A | 0.38
C44U A65G | 0.13
A45C U58C | 0.33
C44U A75U | 0.31
U43G G70A | 0.34
A45G A56C | 0.39
A45G A56G | 0.6
A45G A56U | 0.4
A45C G55C | 0.11
C44U U69C | 0.17
C44U U69A | 0.13
C44A U76C | 0.37
U43G A47U | 0.1
C44G A57G | 0.45
C44A A77G | 0.43
A45C U48C | 0.4
A45C C62U | 0.36

Variant | self-cleavage
A45G U76A | 0.96
A45G U76C | 0.79
A45G U76G | 0.97
A45C U78C | 0.42
C44G G63A | 0.65
C44U G55A | 0.07
A45G U58C | 0.31
A45G U58A | 0.31
A45G U58G | 0.18
A45G U72A | 0.62
A45G U72C | 0.98
C44U U80A | 0.46
C44U U80C | 0.29
U43G U54C | 0.45
U43G U54A | 0.26
C44U U48C | 0.44
A45G A64G | 0.65
A45G A64U | 0.3
A45C U80A | 0.48
A45C U80C | 0.4
C44G A56G | 0.44
C44U U67A | 0.14
C44U U67C | 0.11
C44G C71U | 0.15

Variant | self-cleavage
C44A A75G | 0.32
A45U A77G | 0.52
A45U A77U | 0.55
C44A U80C | 0.41
U43G U80C | 0.18
A45C U67C | 0.15
A45G G55A | 0.43
A45G G55U | 0.4
A45G G55C | 0.67
C44A A64C | 0.18
C44A A64G | 0.49
U43G A57G | 0.21
A45G U80G | 1.02
A45G U80A | 0.91
A45G U80C | 0.91
C44G U49C | 0.19
C44G U49A | 0.23
U43G A64U | 0.47
U43G A64G | 0.46
C44A U72C | 0.71
U43G U49C | 0.28
A45C U76A | 0.5
C44A U51A | 0.11
U43C U54G | 0.49

Variant | self-cleavage
U43C U54A | 0.69
U43C U54C | 0.32
A45G A65U | 0.27
A45G A65G | 0.35
A45G A65C | 0.24
C44A A45G | 0.61
A45G C71U | 0.65
A45G C71G | 0.3
C44A U69G | 0.13
C44A U69C | 0.17
U43C U69A | 0.32
U43C U69C | 0.31
U43C U69G | 0.43
A45G C81U | 1.07
A45G C81A | 1.02
A45G C50G | 0.28
A45G C50U | 0.74
C44A | 0.43
C44G | 0.52
C44U | 0.31
C44G U74C | 1.02
C44G U74A | 1.18
A45C U51A | 0.41
A45C U51C | 0.32

Variant | self-cleavage
U43C U80A | 0.73
U43C U80C | 0.68
U43C U80G | 1.01
C44A U60C | 0.17
A45C A57G | 0.26
C44A U66G | 0.23
A45U A75U | 0.55
A45U A75G | 0.35
C44G U76C | 0.58
A45G C68A | 0.18
A45G C68U | 0.88
C44A U78A | 0.49
C44A U78C | 0.38
C44G A45U | 0.13
C44G A45G | 0.34
C44A A56U | 0.21
A45C U72A | 0.38
A45C U72C | 0.49
U43G U69C | 0.35
U43G U51C | 0.2
C44G U78C | 0.44
C44U U58C | 0.28
A45U A47U | 0.24
A45U A47C | 0.22

Variant | self-cleavage
A45U A47G | 0.36
C44G C68A | 0.3
U43G U48A | 0.2
U43G U48C | 0.39
A45U A57G | 0.31
A45U A57U | 0.33
A45U A57C | 0.35
A45C U60C | 0.41
A45C U60A | 0.33
C44U U66A | 0.51
A45G A75U | 0.91
A45G A75G | 0.77
A45G A75C | 1.01
U43C U60C | 0.26
U43C U60A | 0.27
U43C U60G | 0.3
C44U U76C | 0.25
C44U U76A | 0.14
A45G A77C | 0.48
A45G A77G | 0.87
A45G A77U | 0.9
C44A C68G | 0.12
